Here are results for two molecules from patent US20170189519A1.

Common to all, as to conditions: remark: other sources report otherwise
For assay [1], the target named is s127H1-t2-cl18long. Kind of assay: SEC-MALS of trimer with Fab fragments; value in brackets is the theoretical one. For orientation: Size exclusion chromatography separates by hydrodynamic size, large species first.
The target of assay [2] is s127H1-t2-cl18long. Kind of assay: Kd app from steady state Octet (biolayer interferometry), antibody immobilized. (Biolayer interferometry detects binding as a change in optical thickness at a sensor tip.)
The target of assay [3] is UFV150124 (influenza A virus H1 A/Brisbane/59/2007).
Assay [4] deals with UFV150134 (influenza A virus H1 A/California/07/2009).
In assay [5] the target is UFV150125 (influenza A virus H1 A/Brisbane/59/2007).
Assay [6] deals with UFV150135 (influenza A virus H1 A/California/07/2009).

B1: Fab fragment of CR6261 (Fab, V domains shown)
VH: EVQLVESGAEVKKPGSSVKVSCKASGGPFRSYAISWVRQAPGQGPEWMGGIIPIFGTTKYAPKFQGRVTITADDFAGTVYMELSSLRSEDTAMYYCAKHMGYQVRETMDVWGKGTTVTVSS
VL: QSVLTQPPSVSAAPGQKVTISCSGSSSNIGNDYVSWYQQLPGTAPKLLIYDNNKRPSGIPDRFSGSKSGTSATLGITGLQTGDEANYYCATWDRRPTAYVVFGGGTKLTVLG
In the assay with s127H1-t2-cl18long [1], B1 gave a Mw of trimer protein complex with CRF6261 of 216 kDa.

B2: CR6261 (antibody, V domains shown)
VH: EVQLVESGAEVKKPGSSVKVSCKASGGPFRSYAISWVRQAPGQGPEWMGGIIPIFGTTKYAPKFQGRVTITADDFAGTVYMELSSLRSEDTAMYYCAKHMGYQVRETMDVWGKGTTVTVSS
VL: QSVLTQPPSVSAAPGQKVTISCSGSSSNIGNDYVSWYQQLPGTAPKLLIYDNNKRPSGIPDRFSGSKSGTSATLGITGLQTGDEANYYCATWDRRPTAYVVFGGGTKLTVLG
Molecule B2 returned a Kd in the assay with s127H1-t2-cl18long [2] of 0.5 nM. The CR6261 binding AlphaLISA (counts) in assay [3] came out at 572000 counts; in assay [4], 587000 counts; in assay [5], 475000 counts; in assay [6], 625000 counts.
